Here are results for 5 molecules from article PMC5716075, “Conserved asymmetry underpins homodimerization of Dicer-associated double-stranded RNA-binding proteins” (Nucleic Acids Research, 2017).

Data set [1] concerns the molecule itself. As to the kind of experiment: SEC-MALS; SEC-MALLS; Superdex S75 10/30 (except where otherwise noted), 20 mM MES pH 6.5, 200 mM NaCl, 1 mM dithiothreitol, 0.5 ml/minute; 100 μl of protein at 2–5 mg/ml injected. (In general: In gel filtration, larger molecules generally elute earlier.)
Data set [2] concerns the target T1, full length (FL) PACT (protein activator of PKR) (human), O75569.
T1 chain: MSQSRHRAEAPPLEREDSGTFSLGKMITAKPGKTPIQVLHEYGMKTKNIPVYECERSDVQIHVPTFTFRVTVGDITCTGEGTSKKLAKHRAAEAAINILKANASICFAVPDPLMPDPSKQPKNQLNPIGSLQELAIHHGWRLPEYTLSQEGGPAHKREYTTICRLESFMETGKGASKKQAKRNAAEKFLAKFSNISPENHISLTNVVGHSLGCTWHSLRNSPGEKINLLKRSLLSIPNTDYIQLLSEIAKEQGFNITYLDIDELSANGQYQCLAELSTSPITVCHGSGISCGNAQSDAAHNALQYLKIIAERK
The data set is described as above. The following applies: remark: other sources report otherwise.

By stoichiometry N is commonly meant a count of units in the complex or per binding partner.

B1: R353H,R354N TRBP-Ext-D3 (PACT-like variant of TRBP-Ext-D3) (domain or fragment, human, UniProt Q15633 258-366, looked up)
chain: NRGPGCTWDSLRNSVGEKILSLRSCSLGSLGALGPACCRVLSELSEEQAFHVSYLDIEELSLSGLCQCLVELSTQPATVCHGSATTREAARGEAAHNALQYLKIMAGSK
notes: source: E. coli BL21 (DE3), purified (HisTrap, tag removed with 3C protease, Superdex S75); not shown: His6, N-terminal, cleaved; MBP, N-terminal, cleaved
Consider B1, for which the “stoichiometry N” value in data set [1] stood at 2.

B2: PACT-D3 (PACT residues 239-313, core dsRBD 3), wild type (domain or fragment, human, UniProt O75569 239-313, looked up)
chain: TDYIQLLSEIAKEQGFNITYLDIDELSANGQYQCLAELSTSPITVCHGSGISCGNAQSDAAHNALQYLKIIAERK
notes: Grown in M9 with 15N ammonium chloride (and 13C glucose for 3D NMR samples); also called WT PACT-D3; source: E. coli BL21 (DE3), purified (HisTrap, tag removed with 3C protease, Superdex S75); not shown: His6, N-terminal, cleaved; MBP, N-terminal, cleaved
As to B2, in data set [1], the “stoichiometry N” value worked out at 2.

B3: Loqs-D3 (Loquacious residues 392-463, dsRBD 3), wild type (domain or fragment, Drosophila, UniProt Q9VJY9 392-463, looked up)
chain: IDYIKLLGEIATENQFEVTYVDIEEKTFSGQFQCLVQLSTLPVGVCHGSGPTAADAQRHAAQNALEYLKIMT
notes: Loquacious (Loqs), Drosophila, residues 392-463 (dsRBD 3, Type B); also called WT Loqs-D3; source: E. coli BL21 (DE3), purified (GSTrap, tag removed with tobacco etch virus protease, size exclusion)
Regarding B3, the “stoichiometry N” value in data set [1] stood at 2.

B4: full length (FL) PACT (protein activator of PKR), O75569 1-313 (natural protein)
chain: T1 chain
In data set [2], B4 had a stoichiometry N of 2.

B5: PACT-Ext-D3 (PACT residues 208-313, dsRBD 3 with the conserved N-terminal extension), wild type (domain or fragment, human, UniProt O75569 208-313, looked up)
chain: GHSLGCTWHSLRNSPGEKINLLKRSLLSIPNTDYIQLLSEIAKEQGFNITYLDIDELSANGQYQCLAELSTSPITVCHGSGISCGNAQSDAAHNALQYLKIIAERK
notes: also called WT PACT-Ext-D3; source: E. coli BL21 (DE3), purified (HisTrap, tag removed with 3C protease, Superdex S75); not shown: His6, N-terminal, cleaved; MBP, N-terminal, cleaved
For the molecule B5, in data set [1], the “stoichiometry N” value amounted to 2.
